{
  "source": "paper PMC9408933",
  "about": "“Discovery of the Key Mutation Site Influencing the Thermostability of Thermomyces lanuginosus Lipase by Rosetta Design Programs” (International Journal of Molecular Sciences, 2022)",
  "proteins": {"B1": {"name": "TLL (Thermomyces lanuginosus lipase) (Thermomyces lanuginosus) (protein)", "chain": "EVSQDLFNQFNLFAQYSAAAYCGKNNDAPAGTNITCTGNACPEVEKADATFLYSFEDSGVGDVTGFLALDNTNKLIVLSFRGSRSIENWIGNLNFDLKEINDICSGCRGHDGFTSSWRSVADTLRQKVEDAVREHPDYRVVFTGHSLGGALATVAGADLRGNGYDIDVFSYGAPRVGNRAFAEFLTVQTGGTLYRITHTNDIVPRLPPREFGYSHSSPEYWIKSGTLVPVTRNDIVKIEGIDATGGNNQPNIPDIPAHLWYFGLIGTCL", "notes": "N-terminal His-tag, secreted from Pichia pastoris GS115 (pPIC9K), Ni-NTA purified"}},
  "substrate": "CCCCCCCCCCCCCCCC(=O)Oc1ccc([N+](=O)[O-])cc1",
  "experiment": "p-nitrophenol release, Michaelis-Menten fit",
  "type": "biochemical, Thermomyces lanuginosus",
  "settings": "37 °C, pH 9.0, 100 mM Tris-HCl, pNPP 0.08-10.00 mM, apparent Km",
  "excerpt": "p-nitrophenol release, Michaelis-Menten fit on TLL (Thermomyces lanuginosus lipase)",
  "data": [
    {"protein": "B1", "values": [
      {"measurement": "Km", "result": "0.16 ± 0.03", "unit": "mM"},
      {"measurement": "Vmax", "result": 297, "unit": "µmol/min/mg"},
      {"measurement": "kcat", "result": "850 ± 11.8", "unit": "s⁻¹"},
      {"measurement": "kcat/Km", "result": "5.31e+06 ± 74000", "unit": "M⁻¹ s⁻¹"}
    ]}
  ]
}
